Reference: the array DNA melting data of Ke et al.

Experiment: melting temperature; melt of duplexes
Conditions: sodium 0.0675 M; strand 1 µM

Row | Substance | Tm
1 | CGACGTGCCTCATGTGCTG+CAGCACATGCCGCACGTCG ((((((((..(((((((((+)))))))))..)))))))) | 51.4 °C
2 | CGACGTGCCTCATGTGCTG+CAGCACATGCGGCACGTCG (((((((((.(((((((((+))))))))).))))))))) | 58.3 °C
3 | CGACGTGCCTCATGTGCTG+CAGCACATGGCGCACGTCG ((((((((..(((((((((+)))))))))..)))))))) | 52.5 °C
4 | CGACGTGCCTCATGTGCTG+CAGCACATGTAGCACGTCG ((((((((..(((((((((+)))))))))..)))))))) | 52.9 °C
5 | CGACGTGCCTCATGTGCTG+CAGCACATTATGCACGTCG ((((((((.(.((((((((+)))))))).).)))))))) | 47.7 °C
6 | CGACGTGCCTCATGTGCTG+CAGCACATTGAGCACGTCG ((((((((...((((((((+))))))))...)))))))) | 51.4 °C
7 | CGACGTGCCTCATGTGCTG+CAGCACATTGCGCACGTCG ((((((((...((((((((+))))))))...)))))))) | 47.5 °C
8 | CGACGTGCCTCATGTGCTG+CAGCACATTTGGCACGTCG (((((((((..((((((((+))))))))..))))))))) | 53.6 °C
9 | CGACGTGCCTCATGTGCTG+CAGCACATTTTGCACGTCG ((((((((...((((((((+))))))))...)))))))) | 46.6 °C
10 | CGACGTGCCTGATGTGCTG+CAGCACATAACGCACGTCG ((((((((.(.((((((((+)))))))).).)))))))) | 48.8 °C
11 | CGACGTGCCTGATGTGCTG+CAGCACATAAGGCACGTCG ((((((((((.((((((((+)))))))).)))))))))) | 59 °C
12 | CGACGTGCCTGATGTGCTG+CAGCACATAATGCACGTCG ((((((((.(.((((((((+)))))))).).)))))))) | 49.9 °C
13 | CGACGTGCCTGATGTGCTG+CAGCACATACTGCACGTCG ((((((((...((((((((+))))))))...)))))))) | 48.4 °C
14 | CGACGTGCCTGATGTGCTG+CAGCACATAGAGCACGTCG ((((((((...((((((((+))))))))...)))))))) | 51.2 °C
15 | CGACGTGCCTGATGTGCTG+CAGCACATATAGCACGTCG ((((((((...((((((((+))))))))...)))))))) | 49.8 °C
16 | CGACGTGCCTGATGTGCTG+CAGCACATCAAGCACGTCG ((((((((.((((((((((+)))))))))).)))))))) | 56.6 °C
17 | CGACGTGCCTGATGTGCTG+CAGCACATCACGCACGTCG ((((((((.((((((((((+)))))))))).)))))))) | 55.5 °C
18 | CGACGTGCCTGATGTGCTG+CAGCACATCATGCACGTCG ((((((((.((((((((((+)))))))))).)))))))) | 56.9 °C
19 | CGACGTGCCTGATGTGCTG+CAGCACATCGAGCACGTCG ((((((((..(((((((((+)))))))))..)))))))) | 55.3 °C
20 | CGACGTGCCTGATGTGCTG+CAGCACATCGGGCACGTCG (((((((((.(((((((((+))))))))).))))))))) | 61.7 °C
21 | CGACGTGCCTGATGTGCTG+CAGCACATCTTGCACGTCG ((((((((..(((((((((+)))))))))..)))))))) | 53.7 °C
22 | CGACGTGCCTGATGTGCTG+CAGCACATGAAGCACGTCG ((((((((.(.((((((((+)))))))).).)))))))) | 49.8 °C
23 | CGACGTGCCTGATGTGCTG+CAGCACATGGGGCACGTCG (((((((((..((((((((+))))))))..))))))))) | 56.4 °C
24 | CGACGTGCCTGATGTGCTG+CAGCACATGGTGCACGTCG ((((((((...((((((((+))))))))...)))))))) | 47.4 °C

Row | Substance | Tm
25 | CGACGTGCCTGATGTGCTG+CAGCACATGTAGCACGTCG ((((((((...((((((((+))))))))...)))))))) | 49.3 °C
26 | CGACGTGCCTGATGTGCTG+CAGCACATGTCGCACGTCG ((((((((...((((((((+))))))))...)))))))) | 48 °C
27 | CGACGTGCCTGATGTGCTG+CAGCACATGTGGCACGTCG (((((((((..((((((((+))))))))..))))))))) | 54.9 °C
28 | CGACGTGCCTGATGTGCTG+CAGCACATTCCGCACGTCG ((((((((...((((((((+))))))))...)))))))) | 48.5 °C
29 | CGACGTGCCTGATGTGCTG+CAGCACATTGAGCACGTCG ((((((((...((((((((+))))))))...)))))))) | 51 °C
30 | CGACGTGCCTGATGTGCTG+CAGCACATTGCGCACGTCG ((((((((...((((((((+))))))))...)))))))) | 49.3 °C
31 | CGACGTGCCTGATGTGCTG+CAGCACATTTGGCACGTCG (((((((((..((((((((+))))))))..))))))))) | 55.6 °C
32 | CGACGTGCCTTATGTGCTG+CAGCACATAAAGCACGTCG ((((((((.((((((((((+)))))))))).)))))))) | 53.4 °C
33 | CGACGTGCCTTATGTGCTG+CAGCACATAAGGCACGTCG (((((((((((((((((((+))))))))))))))))))) | 62.9 °C
34 | CGACGTGCCTTATGTGCTG+CAGCACATACGGCACGTCG (((((((((.(((((((((+))))))))).))))))))) | 56.1 °C
35 | CGACGTGCCTTATGTGCTG+CAGCACATAGAGCACGTCG ((((((((..(((((((((+)))))))))..)))))))) | 51.8 °C
36 | CGACGTGCCTTATGTGCTG+CAGCACATAGGGCACGTCG (((((((((.(((((((((+))))))))).))))))))) | 57.7 °C
37 | CGACGTGCCTTATGTGCTG+CAGCACATATGGCACGTCG (((((((((.(((((((((+))))))))).))))))))) | 57.9 °C
38 | CGACGTGCCTTATGTGCTG+CAGCACATCAAGCACGTCG ((((((((.(.((((((((+)))))))).).)))))))) | 48.8 °C
39 | CGACGTGCCTTATGTGCTG+CAGCACATCACGCACGTCG ((((((((.(.((((((((+)))))))).).)))))))) | 46.7 °C
40 | CGACGTGCCTTATGTGCTG+CAGCACATCGCGCACGTCG ((((((((...((((((((+))))))))...)))))))) | 47.2 °C
41 | CGACGTGCCTTATGTGCTG+CAGCACATCGGGCACGTCG (((((((((..((((((((+))))))))..))))))))) | 53.1 °C
42 | CGACGTGCCTTATGTGCTG+CAGCACATCTGGCACGTCG (((((((((..((((((((+))))))))..))))))))) | 53.7 °C
43 | CGACGTGCCTTATGTGCTG+CAGCACATGAAGCACGTCG ((((((((.(.((((((((+)))))))).).)))))))) | 50.5 °C
44 | CGACGTGCCTTATGTGCTG+CAGCACATGAGGCACGTCG ((((((((((.((((((((+)))))))).)))))))))) | 59.4 °C
45 | CGACGTGCCTTATGTGCTG+CAGCACATGCAGCACGTCG ((((((((...((((((((+))))))))...)))))))) | 49 °C
46 | CGACGTGCCTTATGTGCTG+CAGCACATGCTGCACGTCG ((((((((...((((((((+))))))))...)))))))) | 45.1 °C
47 | CGACGTGCCTTATGTGCTG+CAGCACATGGGGCACGTCG (((((((((..((((((((+))))))))..))))))))) | 56.1 °C
48 | CGACGTGCCTTATGTGCTG+CAGCACATGTAGCACGTCG ((((((((...((((((((+))))))))...)))))))) | 49.1 °C

Row | Substance | Tm
49 | CGACGTGCCTTATGTGCTG+CAGCACATTACGCACGTCG ((((((((.(.((((((((+)))))))).).)))))))) | 47.7 °C
50 | CGACGTGCCTTATGTGCTG+CAGCACATTCAGCACGTCG ((((((((...((((((((+))))))))...)))))))) | 49 °C
51 | CGACGTGCCTTATGTGCTG+CAGCACATTCGGCACGTCG (((((((((..((((((((+))))))))..))))))))) | 53 °C
52 | CGACGTGCCTTATGTGCTG+CAGCACATTGGGCACGTCG (((((((((..((((((((+))))))))..))))))))) | 55 °C
53 | CGACGTGCCTTATGTGCTG+CAGCACATTTCGCACGTCG ((((((((...((((((((+))))))))...)))))))) | 47.1 °C
54 | CGACGTGCCTTATGTGCTG+CAGCACATTTGGCACGTCG (((((((((..((((((((+))))))))..))))))))) | 54.3 °C
55 | CGACGTGCCTTATGTGCTG+CAGCACATTTTGCACGTCG ((((((((...((((((((+))))))))...)))))))) | 47.9 °C
56 | CGACGTGCGAAATGTGCTG+CAGCACATACAGCACGTCG ((((((((...((((((((+))))))))...)))))))) | 53.3 °C
57 | CGACGTGCGAAATGTGCTG+CAGCACATACGGCACGTCG ((((((((...((((((((+))))))))...)))))))) | 49 °C
58 | CGACGTGCGAAATGTGCTG+CAGCACATATCGCACGTCG ((((((((((.((((((((+)))))))).)))))))))) | 57.4 °C
59 | CGACGTGCGAAATGTGCTG+CAGCACATATTGCACGTCG ((((((((.(.((((((((+)))))))).).)))))))) | 51.9 °C
60 | CGACGTGCGAAATGTGCTG+CAGCACATCCCGCACGTCG (((((((((..((((((((+))))))))..))))))))) | 52.9 °C
61 | CGACGTGCGAAATGTGCTG+CAGCACATCCTGCACGTCG ((((((((...((((((((+))))))))...)))))))) | 49.5 °C
62 | CGACGTGCGAAATGTGCTG+CAGCACATCGCGCACGTCG (((((((((..((((((((+))))))))..))))))))) | 53.8 °C
63 | CGACGTGCGAAATGTGCTG+CAGCACATGACGCACGTCG (((((((((..((((((((+))))))))..))))))))) | 55 °C
64 | CGACGTGCGAAATGTGCTG+CAGCACATGAGGCACGTCG ((((((((...((((((((+))))))))...)))))))) | 54.5 °C
65 | CGACGTGCGAAATGTGCTG+CAGCACATGCCGCACGTCG (((((((((..((((((((+))))))))..))))))))) | 56 °C
66 | CGACGTGCGAAATGTGCTG+CAGCACATGCGGCACGTCG ((((((((...((((((((+))))))))...)))))))) | 51.7 °C
67 | CGACGTGCGAAATGTGCTG+CAGCACATGGTGCACGTCG ((((((((...((((((((+))))))))...)))))))) | 50.6 °C
68 | CGACGTGCGAAATGTGCTG+CAGCACATGTCGCACGTCG ((((((((((.((((((((+)))))))).)))))))))) | 58.9 °C
69 | CGACGTGCGAAATGTGCTG+CAGCACATTACGCACGTCG (((((((((.(((((((((+))))))))).))))))))) | 58.6 °C
70 | CGACGTGCGAAATGTGCTG+CAGCACATTGAGCACGTCG ((((((((..(((((((((+)))))))))..)))))))) | 61.3 °C
71 | CGACGTGCGAAATGTGCTG+CAGCACATTGCGCACGTCG (((((((((.(((((((((+))))))))).))))))))) | 60.2 °C
72 | CGACGTGCGAAATGTGCTG+CAGCACATTGTGCACGTCG ((((((((..(((((((((+)))))))))..)))))))) | 52.4 °C
